In US20090018070A1 (LABORATOIRES SERONO, published 2009):

B1: GNRT mutant FSH (Clone 10C, alpha GNRT / beta GM1) (ligand)
chain 1: not shown
chain 2: NSCELTNITIAIEKEECRFCISINTTWCAGYCYTRDLVYKDPARPKIQKTCTFKNLTYETVRVPGCAHHADSLYTYPVATQCHCGKCDSDSTDCTVRGLGPSYCSFGEMKE
B2: GNFT mutant FSH (Clone 11C, alpha GNFT / beta GM1) (ligand)
chain 1: not shown
chain 2: B1 chain 2

Biological target: T1, human FSH receptor (human, UniProt P23945 18-695)
T1 sequence (looked up): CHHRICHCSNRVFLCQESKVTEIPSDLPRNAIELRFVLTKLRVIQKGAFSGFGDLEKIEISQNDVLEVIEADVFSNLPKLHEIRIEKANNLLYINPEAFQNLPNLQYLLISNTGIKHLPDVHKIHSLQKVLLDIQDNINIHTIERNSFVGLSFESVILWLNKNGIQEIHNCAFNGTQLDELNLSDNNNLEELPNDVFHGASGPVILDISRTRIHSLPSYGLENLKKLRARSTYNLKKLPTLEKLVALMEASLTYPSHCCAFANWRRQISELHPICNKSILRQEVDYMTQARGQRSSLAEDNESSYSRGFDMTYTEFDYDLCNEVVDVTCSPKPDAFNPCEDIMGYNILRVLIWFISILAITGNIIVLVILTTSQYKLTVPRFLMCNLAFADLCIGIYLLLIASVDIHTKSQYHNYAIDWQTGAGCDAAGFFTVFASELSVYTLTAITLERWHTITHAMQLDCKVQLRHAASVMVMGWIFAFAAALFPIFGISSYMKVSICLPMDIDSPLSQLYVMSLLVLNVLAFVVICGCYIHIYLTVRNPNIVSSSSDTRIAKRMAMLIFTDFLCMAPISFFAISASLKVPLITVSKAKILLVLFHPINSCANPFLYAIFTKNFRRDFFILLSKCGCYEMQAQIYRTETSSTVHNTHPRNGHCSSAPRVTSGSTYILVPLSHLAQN
Test: cell-based or functional assay

Row | Binder | EC50 of cAMP production in CHO-FSHR cells
1 | B1 | 0.258 nM
2 | B2 | 0.278 nM
